Test results as given in patent publication US20140087995A1 (published 2014).
Numbered stars: 1 amine (or outer) side, 2 acyl side, 3 side chain; on linkers, the order of the positions; unused ones are H or OH. Bridge positions count the residues as written; N and C are the ends. Side chains are listed from the residue outwards. Ends that are not written are not given here. * marks the point of attachment. C20 diacid = O=C(O)CCCCCCCCCCCCCCCCCCC(=O)*; γGlu = O=C(O)[C@H](CCC(=O)[*:2])N[*:1]; AEEA = NCCOCCOCC(=O)O

T1: human calcitonin receptor (human, UniProt P30988 25-474)
T1 construct: whole, on cells; also called hCTR; hCT
T1 sequence (looked up): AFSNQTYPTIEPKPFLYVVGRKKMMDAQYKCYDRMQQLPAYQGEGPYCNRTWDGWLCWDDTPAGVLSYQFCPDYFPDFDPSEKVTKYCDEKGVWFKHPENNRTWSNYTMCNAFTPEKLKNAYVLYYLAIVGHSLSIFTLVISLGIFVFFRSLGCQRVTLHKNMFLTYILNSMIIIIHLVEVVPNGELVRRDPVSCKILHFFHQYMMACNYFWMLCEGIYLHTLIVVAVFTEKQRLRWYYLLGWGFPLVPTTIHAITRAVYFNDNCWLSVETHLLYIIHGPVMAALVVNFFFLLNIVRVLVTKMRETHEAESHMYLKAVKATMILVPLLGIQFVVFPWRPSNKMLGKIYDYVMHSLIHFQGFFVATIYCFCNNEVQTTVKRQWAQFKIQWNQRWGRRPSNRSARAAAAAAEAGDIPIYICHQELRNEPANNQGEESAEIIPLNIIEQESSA

B1: N^ε1-[2-[2-[2-[[2-[2-[2-[[(4S)-4-carboxy-4-(19-carboxynonadecanoylamino)butanoyl]amino]ethoxy]ethoxy]acetyl]amino]ethoxy]ethoxy]acetyl]-[Arg17,Pro21,Pro27,Pro34 … (peptide)
peptide: K([AEEA-AEEA-γGlu-C20 diacid])CNTATCATQRLANFLRHSSPNFGAIPSSTNVGPNTY-NH2
modifications: disulfide 2-7; N-terminus assumed
SMILES: CC[C@H](C)[C@H](NC(=O)[C@H](C)NC(=O)CNC(=O)[C@H](Cc1ccccc1)NC(=O)[C@H](CC(N)=O)NC(=O)[C@@H]1CCCN1C(=O)[C@H](CO)NC(=O)[C@H](CO)NC(=O)[C@H](Cc1c[nH]cn1)NC(=O)[C@H](CCCNC(=N)N)NC(=O)[C@H](CC(C)C)NC(=O)[C@H](Cc1ccccc1)NC(=O)[C@H](CC(N)=O)NC(=O)[C@H](C)NC(=O)[C@H](CC(C)C)NC(=O)[C@H](CCCNC(=N)N)NC(=O)[C@H](CCC(N)=O)NC(=O)[C@@H](NC(=O)[C@H](C)NC(=O)[C@@H]1CSSC[C@H](NC(=O)[C@@H](N)CCCCNC(=O)COCCOCCNC(=O)COCCOCCNC(=O)CC[C@H](NC(=O)CCCCCCCCCCCCCCCCCCC(=O)O)C(=O)O)C(=O)N[C@@H](CC(N)=O)C(=O)N[C@@H]([C@@H](C)O)C(=O)N[C@@H](C)C(=O)N[C@@H]([C@@H](C)O)C(=O)N1)[C@@H](C)O)C(=O)N1CCC[C@H]1C(=O)N[C@@H](CO)C(=O)N[C@@H](CO)C(=O)N[C@H](C(=O)N[C@@H](CC(N)=O)C(=O)N[C@H](C(=O)NCC(=O)N1CCC[C@H]1C(=O)N[C@@H](CC(N)=O)C(=O)N[C@H](C(=O)N[C@@H](Cc1ccc(O)cc1)C(N)=O)[C@@H](C)O)C(C)C)[C@@H](C)O
notes: also called compound 98
B2: N^ε1-[2-[2-[2-[[(4S)-4-carboxy-4-(19-carboxynonadecanoylamino)butanoyl]amino]ethoxy]ethoxy]acetyl]-[Arg14,Arg17,Pro21,Pro27]-h-amylin (peptide)
peptide: K([AEEA-γGlu-C20 diacid])CNTATCATQRLARFLRHSSPNFGAIPSSTNVGSNTY-NH2
modifications: disulfide 2-7; N-terminus assumed
SMILES: CC[C@H](C)[C@H](NC(=O)[C@H](C)NC(=O)CNC(=O)[C@H](Cc1ccccc1)NC(=O)[C@H](CC(N)=O)NC(=O)[C@@H]1CCCN1C(=O)[C@H](CO)NC(=O)[C@H](CO)NC(=O)[C@H](Cc1c[nH]cn1)NC(=O)[C@H](CCCNC(=N)N)NC(=O)[C@H](CC(C)C)NC(=O)[C@H](Cc1ccccc1)NC(=O)[C@H](CCCNC(=N)N)NC(=O)[C@H](C)NC(=O)[C@H](CC(C)C)NC(=O)[C@H](CCCNC(=N)N)NC(=O)[C@H](CCC(N)=O)NC(=O)[C@@H](NC(=O)[C@H](C)NC(=O)[C@@H]1CSSC[C@H](NC(=O)[C@@H](N)CCCCNC(=O)COCCOCCNC(=O)CC[C@H](NC(=O)CCCCCCCCCCCCCCCCCCC(=O)O)C(=O)O)C(=O)N[C@@H](CC(N)=O)C(=O)N[C@@H]([C@@H](C)O)C(=O)N[C@@H](C)C(=O)N[C@@H]([C@@H](C)O)C(=O)N1)[C@@H](C)O)C(=O)N1CCC[C@H]1C(=O)N[C@@H](CO)C(=O)N[C@@H](CO)C(=O)N[C@H](C(=O)N[C@@H](CC(N)=O)C(=O)N[C@H](C(=O)NCC(=O)N[C@@H](CO)C(=O)N[C@@H](CC(N)=O)C(=O)N[C@H](C(=O)N[C@@H](Cc1ccc(O)cc1)C(N)=O)[C@@H](C)O)C(C)C)[C@@H](C)O
notes: also called compound 82
B3: N^ε1-[2-[2-[2-[[(4S)-4-carboxy-4-(19-carboxynonadecanoylamino)butanoyl]amino]ethoxy]ethoxy]acetyl]-[Ala14,Arg17,Pro21,Pro27,Pro31]-h-amylin (peptide)
peptide: K([AEEA-γGlu-C20 diacid])CNTATCATQRLAAFLRHSSPNFGAIPSSTPVGSNTY-NH2
modifications: disulfide 2-7; N-terminus assumed
SMILES: CC[C@H](C)[C@H](NC(=O)[C@H](C)NC(=O)CNC(=O)[C@H](Cc1ccccc1)NC(=O)[C@H](CC(N)=O)NC(=O)[C@@H]1CCCN1C(=O)[C@H](CO)NC(=O)[C@H](CO)NC(=O)[C@H](Cc1c[nH]cn1)NC(=O)[C@H](CCCNC(=N)N)NC(=O)[C@H](CC(C)C)NC(=O)[C@H](Cc1ccccc1)NC(=O)[C@H](C)NC(=O)[C@H](C)NC(=O)[C@H](CC(C)C)NC(=O)[C@H](CCCNC(=N)N)NC(=O)[C@H](CCC(N)=O)NC(=O)[C@@H](NC(=O)[C@H](C)NC(=O)[C@@H]1CSSC[C@H](NC(=O)[C@@H](N)CCCCNC(=O)COCCOCCNC(=O)CC[C@H](NC(=O)CCCCCCCCCCCCCCCCCCC(=O)O)C(=O)O)C(=O)N[C@@H](CC(N)=O)C(=O)N[C@@H]([C@@H](C)O)C(=O)N[C@@H](C)C(=O)N[C@@H]([C@@H](C)O)C(=O)N1)[C@@H](C)O)C(=O)N1CCC[C@H]1C(=O)N[C@@H](CO)C(=O)N[C@@H](CO)C(=O)N[C@H](C(=O)N1CCC[C@H]1C(=O)N[C@H](C(=O)NCC(=O)N[C@@H](CO)C(=O)N[C@@H](CC(N)=O)C(=O)N[C@H](C(=O)N[C@@H](Cc1ccc(O)cc1)C(N)=O)[C@@H](C)O)C(C)C)[C@@H](C)O
notes: also called compound 72
B4: N^ε1-[2-[2-[2-[[(4S)-4-carboxy-4-(19-carboxynonadecanoylamino)butanoyl]amino]ethoxy]ethoxy]acetyl]-[Arg17,Pro21,Pro27,Arg34]-h-amylin (peptide)
peptide: K([AEEA-γGlu-C20 diacid])CNTATCATQRLANFLRHSSPNFGAIPSSTNVGRNTY-NH2
modifications: disulfide 2-7; N-terminus assumed
SMILES: CC[C@H](C)[C@H](NC(=O)[C@H](C)NC(=O)CNC(=O)[C@H](Cc1ccccc1)NC(=O)[C@H](CC(N)=O)NC(=O)[C@@H]1CCCN1C(=O)[C@H](CO)NC(=O)[C@H](CO)NC(=O)[C@H](Cc1c[nH]cn1)NC(=O)[C@H](CCCNC(=N)N)NC(=O)[C@H](CC(C)C)NC(=O)[C@H](Cc1ccccc1)NC(=O)[C@H](CC(N)=O)NC(=O)[C@H](C)NC(=O)[C@H](CC(C)C)NC(=O)[C@H](CCCNC(=N)N)NC(=O)[C@H](CCC(N)=O)NC(=O)[C@@H](NC(=O)[C@H](C)NC(=O)[C@@H]1CSSC[C@H](NC(=O)[C@@H](N)CCCCNC(=O)COCCOCCNC(=O)CC[C@H](NC(=O)CCCCCCCCCCCCCCCCCCC(=O)O)C(=O)O)C(=O)N[C@@H](CC(N)=O)C(=O)N[C@@H]([C@@H](C)O)C(=O)N[C@@H](C)C(=O)N[C@@H]([C@@H](C)O)C(=O)N1)[C@@H](C)O)C(=O)N1CCC[C@H]1C(=O)N[C@@H](CO)C(=O)N[C@@H](CO)C(=O)N[C@H](C(=O)N[C@@H](CC(N)=O)C(=O)N[C@H](C(=O)NCC(=O)N[C@@H](CCCNC(=N)N)C(=O)N[C@@H](CC(N)=O)C(=O)N[C@H](C(=O)N[C@@H](Cc1ccc(O)cc1)C(N)=O)[C@@H](C)O)C(C)C)[C@@H](C)O
notes: also called compound 78

molecular target: T1, human calcitonin receptor; assay: ratio of IC50 at human calcitonin receptor to IC50 at human amylin receptor (SPA competition assays)
Description: The resulting pellet was resuspended, homogenized and centrifuged (20.000 rpm, 15 min) in a buffer containing 20 mM Na-HEPES and 0.1 mM EDTA (pH 7.4, buffer 2). The resulting pellet was resuspended in buffer 2 and protein concentration was measured (BCA protein Assay, Pierce). The homogenate was kept cold during the whole procedure. The membranes were kept at −80° C. until use. The assay was performed in a 384 well Optiplate (PerkinElmer) in a total volume of 40 ul. Membranes were mixed with SPA beads. Final concentration of membranes 35 ng/μL final and SPA beads was 0.05 mg/well. Test-compounds were dissolved in DMSO and further diluted in assay buffer (50 mM Hepes, pH 7.4, 1 mM CaCl2, 5 mM MgCl₂, 0.1% OA and 0.02% Tween20). […] The final mixture was incubated with shaking at 400 rpm for 120 min at 25° C. prior to centrifugation (1500 rpm, 10 min). Samples were analyzed on TopCounter™ (Packard). The IC₅₀ was calculated using (one site binding competition analysis) GraphPad Prism5 as a measure of receptor affinity.
Membranes were prepared in the following way; the cells were rinsed with PBS and incubated with Versene for approximately 5 min before harvesting. The cells were flushed with PBS and the cell-suspension was centrifuged for 5 min at 1000 rpm. Cells were homogenized (Ultrathurrax) in a buffer containing 20 mM Na-HEPES and 10 mM EDTA (pH 7.4) and centrifuged at 20.000 rpm for 15 min. The resulting pellet was resuspended, homogenized and centrifuged (20.000 rpm, 15 min) in a buffer containing 20 mM Na-HEPES and 0.1 mM EDTA (pH 7.4, buffer 2). The resulting pellet was resuspended in buffer 2 and protein concentration was measured (BCA protein Assay, Pierce). The homogenate was kept cold during the whole procedure. The membranes were kept at −80° C. until use. Assay was performed in a 384 well Optiplate (PerkinElmer) in a total volume of 40 ul. Membranes were mixed with SPA beads.

| Binder | Ratio hCT/hAmylin binding |
| --- | --- |
| B1 | 74.1 |
| B2 | 140 |
| B3 | 247 |
| B4 | 60.7 |

molecular target: T1, human calcitonin receptor; assay: SPA radioligand competition (125I-calcitonin), membranes of BHK cells with human calcitonin receptor
Description: Membranes were prepared in the following way; the cells were rinsed with PBS and incubated with Versene for approximately 5 min before harvesting. The cells were flushed with PBS and the cell-suspension was centrifuged for 5 min at 1000 rpm. Cells were homogenized (Ultrathurrax) in a buffer containing 20 mM Na-HEPES and 10 mM EDTA (pH 7.4) and centrifuged at 20.000 rpm for 15 min. The resulting pellet was resuspended, homogenized and centrifuged (20.000 rpm, 15 min) in a buffer containing 20 mM Na-HEPES and 0.1 mM EDTA (pH 7.4, buffer 2). The resulting pellet was resuspended in buffer 2 and protein concentration was measured (BCA protein Assay, Pierce). The homogenate was kept cold during the whole procedure. The membranes were kept at −80° C. until use. Assay was performed in a 384 well Optiplate (PerkinElmer) in a total volume of 40 ul. Membranes were mixed with SPA beads. Final concentration of membranes 35 ng/μL final and Final concentration of SPA beads was 0.05 mg/well. Test-compounds were dissolved in DMSO and further diluted in assay buffer (50 mM Hepes, pH 7.4, 1 mM CaCl2, 5 mM MgCl₂, 0.1% OA and 0.02% Tween20). […] The final mixture was incubated for 120 min with shaking at 400 rpm at 25° C. prior to centrifugation (1500 rpm, 10 min). Samples were analyzed on TopCounter™ (Packard). The […] was calculated using (one site binding competition analysis) GraphPad Prism5 as a measure of receptor affinity.

| Binder | IC50 [nM] |
| --- | --- |
| B1 | 6.74 |
| B2 | 88.8 |
| B3 | 42.4 |
| B4 | 36.5 |
